# According to patent US20260028403A1 (Zymeworks, published 2026):
# B1: v37665 (bispecific antibody, human IgG1, kappa, L234A L235A)
# heavy 1: not shown
# heavy 2: QVQLVESGGGLVQPGGSLRLSCSVSGIDLSSNPMIWVRQAPGKGLQYIGIIDTDGSTYYADWAKGRFTISKDSTTVYLQINSPRAEDTAVYYCARRLHGSSNGYYDDLWGQGTLVTVSSGGGGSGGGGSGGGGSGGGGSDGQMTQSPSSVSASVGDRVTITCQASQSIYSYLSWYQQKPGQRPKLLIYKASTLASGVPSRFSGSGSGTDFTLTISSVQPEDFATYYCQQGYTVTNVDKNTFGGGTKVEIKAAEPKSSDKTHTCPPCPAPEAAGGPSVFLFPPKPKDTLMISRTPEVTCVVVSVSHEDPEVKFNWYVDGVEVHNAKTKPREEQYNSTYRVVSVLTVLHQDWLNGKEYKCKVSNKALPAPIEKTISKAKGQPREPQVYVLPPSRDELTKNQVSLLCLVKGFYPSDIAVEWESNGQPENNYLTWPPVLDSDGSFFLYSKLTVDKSRWQQGNVFSCSVMHEALHNHYTQKSLSLSPG
# light: DIQMTQSPSSLSASVGDRVTITCRASESVEYYVTSLMQWYQQKPGKAPKLLIYAASNVDSGVPSRFSGSGSGTDFTLTISSLQPEDIATYYCQQSRKVPFTFGGGTKVEIKRTVAAPSVFIFPPSDEQLKSGTASVVCLLNNFYPREAKVQWKVDNALQSGNSQESVTEQDSKDSTYSLSSTLTLSKADYEKHKVYACEVTHQGLSSPVTKSFNRGEC
# notes: 13B08 VH-VL scFv); also called anti-(CLDN18.2xCD28) bispecific control
# B2: v37636 (trispecific antibody, human IgG1, lambda, L234A L235A)
# heavy 1: QVQLVESGGGLVQPGGSLRLSCSVSGIDLSSNPMIWVRQAPGKGLQYIGIIDTDGSTYYADWAKGRFTISKDSTTVYLQINSPRAEDTAVYYCARRLHGSSNGYYDDLWGQGTLVTVSSGGGGSGGGGSGGGGSGGGGSDGQMTQSPSSVSASVGDRVTITCQASQSIYSYLSWYQQKPGQRPKLLIYKASTLASGVPSRFSGSGSGTDFTLTISSVQPEDFATYYCQQGYTVTNVDKNTFGGGTKVEIKGGGGSGEVQLVESGGGLVQPGGSLRLSCAASGVTFNYYGMSWIRQAPGKGLEWVASITSSGGRIYYPDSVKGRFTISRENTQKTLYLQMNSLRAEDTAVYYCTLDGRDGWVAYWGQGTLVTVSSASTKGPSVFPLAPSSKSTSGGTAALGCLVKDYFPEPVTVSWNSGALTSGVHTFPAVLQSSGLYSLSSVVTVPSSSLGTQTYICNVNHKPSNTKVDKKVEPKSCDKTHTCPPCPAPEAAGGPSVFLFPPKPKDTLMISRTPEVTCVVVSVSHEDPEVKFNWYVDGVEVHNAKTKPREEQYNSTYRVVSVLTVLHQDWLNGKEYKCKVSNKALPAPIEKTISKAKGQPREPQVYVYPPSRDELTKNQVSLTCLVKGFYPSDIAVEWESNGQPENNYKTTPPVLDSDGSFALVSKLTVDKSRWQQGNVFSCSVMHEALHNHYTQKSLSLSPGGGGGSGDIQMTQSPSSLSASVGDRVTITCRASESVEYYVTSLMQWYQQKPGKAPKLLIYAASNVDSGVPSRFSGSGSGTDFTLTISSLQPEDIATYYCQQSRKVPFTFGGGTKVEIKGGGGSGGGGSGGGGSGGGGSQVQLQESGPGLVKPSETLSLTCAVSGFSLTSYGVHWIRQPPGKGLEWLGVIWPGGGTNFNSALMSRLTISEDTSKNQVSLKLSSVTAADTAVYYCARDRAYGNYLYAMDYWGQGTLVTVSS
# heavy 2: EPKSSDKTHTCPPCPAPEAAGGPSVFLFPPKPKDTLMISRTPEVTCVVVSVSHEDPEVKFNWYVDGVEVHNAKTKPREEQYNSTYRVVSVLTVLHQDWLNGKEYKCKVSNKALPAPIEKTISKAKGQPREPQVYVLPPSRDELTKNQVSLLCLVKGFYPSDIAVEWESNGQPENNYLTWPPVLDSDGSFFLYSKLTVDKSRWQQGNVFSCSVMHEALHNHYTQKSLSLSPG
# light: NFMLTQPHSVSESPGKTVTISCKRNTGNIGSNYVNWYQQHEGSSPTTIIYRNDKRPDGVSDRFSGSIDRSSKSASLTISNLKTEDEADYFCQSYSSGFIFGGGTKLTVLGQPKAAPSVTLFPPSSEELQANKATLVCLISDFYPGAVTVAWKADSSPVKAGVETTTPSKQSNNKYAASSYLSLTPEQWKSHRSYSCQVTHEGSTVEKTVAPTECS
# notes: second heavy chain is Fc only; Het Fc, FcKO; also called Cldn18.2xCD3xCD28 trispecific
# B3: v37666 (bispecific antibody, human IgG1, kappa, L234A L235A)
# heavy 1: not shown
# heavy 2: B2 heavy 2
# light: B1 light
# notes: Fc without paratope; also called anti-(CLDN18.2xCD28) bispecific control
# B4: v37637 (trispecific antibody, human IgG1, lambda, L234A L235A)
# heavy 1: not shown
# heavy 2: QVQLVESGGGLVQPGGSLRLSCSVSGIDLSSNPMIWVRQAPGKGLQYIGIIDTDGSTYYADWAKGRFTISKDSTTVYLQINSPRAEDTAVYYCARRLHGSSNGYYDDLWGQGTLVTVSSGGGGSGGGGSGGGGSGGGGSDGQMTQSPSSVSASVGDRVTITCQASQSIYSYLSWYQQKPGQRPKLLIYKASTLASGVPSRFSGSGSGTDFTLTISSVQPEDFATYYCQQGYTVTNVDKNTFGGGTKVEIKGGGGSGEVQLVESGGGLVQPGGSLRLSCAASGVTFNYYGMSWIRQAPGKGLEWVASITSSGGRIYYPDSVKGRFTISRENTQKTLYLQMNSLRAEDTAVYYCTLDGRDGWVAYWGQGTLVTVSSASTKGPSVFPLAPSSKSTSGGTAALGCLVKDYFPEPVTVSWNSGALTSGVHTFPAVLQSSGLYSLSSVVTVPSSSLGTQTYICNVNHKPSNTKVDKKVEPKSCDKTHTCPPCPAPEAAGGPSVFLFPPKPKDTLMISRTPEVTCVVVSVSHEDPEVKFNWYVDGVEVHNAKTKPREEQYNSTYRVVSVLTVLHQDWLNGKEYKCKVSNKALPAPIEKTISKAKGQPREPQVYVLPPSRDELTKNQVSLLCLVKGFYPSDIAVEWESNGQPENNYLTWPPVLDSDGSFFLYSKLTVDKSRWQQGNVFSCSVMHEALHNHYTQKSLSLSPG
# light: B2 light
# notes: Het Fc, FcKO; also called Cldn18.2xCD3xCD28 trispecific
# B5: v37669 (bispecific antibody)
# heavy 1: EVQLVESGGGLVQPGGSLRLSCAASGVTFNYYGMSWIRQAPGKGLEWVASITSSGGRIYYPDSVKGRFTISRENTQKTLYLQMNSLRAEDTAVYYCTLDGRDGWVAYWGQGTLVTVSSASTKGPSVFPLAPSSKSTSGGTAALGCLVKDYFPEPVTVSWNSGALTSGVHTFPAVLQSSGLYSLSSVVTVPSSSLGTQTYICNVNHKPSNTKVDKKVEPKSCDKTHTCPPCPAPEAAGGPSVFLFPPKPKDTLMISRTPEVTCVVVSVSHEDPEVKFNWYVDGVEVHNAKTKPREEQYNSTYRVVSVLTVLHQDWLNGKEYKCKVSNKALPAPIEKTISKAKGQPREPQVYVYPPSRDELTKNQVSLTCLVKGFYPSDIAVEWESNGQPENNYKTTPPVLDSDGSFALVSKLTVDKSRWQQGNVFSCSVMHEALHNHYTQKSLSLSPGGGGGSGNFMLTQPHSVSESPGKTVTISCKRNTGNIGSNYVNWYQQHEGSSPTTIIYRNDKRPDGVSDRFSGSIDRSSKSASLTISNLKTEDEADYFCQSYSSGFIFGGGTKLTVLGGGGSGGGGSGGGGSGGGGSEVQLVESGGGLVQPGGSLRLSCAASGVTFNYYGMSWIRQAPGKGLEWVASITSSGGRIYYPDSVKGRFTISRENTQKTLYLQMNSLRAEDTAVYYCTLDGRDGWVAYWGQGTLVTVSS
# heavy 2: B1 heavy 2
# light: B2 light
# notes: bivalent for CD3; also called 2x1 anti-(CD3xCD3xCLDN18.2) control
# B6: v37667 (bispecific antibody)
# heavy 1: not shown
# heavy 2: B1 heavy 2
# light: B2 light
# notes: as for B5
# Target: T1, Recombinant human/cynomolgus/rhesus macaque CD28 mouse IgG2a Fc fusion protein (Acro Biosystems) (human/cynomolgus/rhesus macaque, UniProt P10747 19-152)
# T1 construct: bought; also called huCD28
# Experiment: SPR Biacore T200, CD28-mIgG2a Fc on CM5, construct injected, 1:1 model;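 note: fc fusion captured by amine coupling, run at 25 °C in HEPES buffer pH 7.4, association 140-500 s then dissociation 600-1200 s, values averaged over three independent runs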
Binder,Kd,koff,kon
B1,25.1 nM,0.00224 s⁻¹,89400 M⁻¹ s⁻¹
B2,434 nM,0.0132 s⁻¹,30400 M⁻¹ s⁻¹
B3,32.4 nM,0.00217 s⁻¹,67300 M⁻¹ s⁻¹
B4,61.4 nM,0.00692 s⁻¹,113000 M⁻¹ s⁻¹

# Target: T2, Recombinant human CD3 epsilon/delta heterodimer, his tag protein (Acro Biosystems) (human, UniProt P07766 23-126; P04234 22-105)
# T2 construct: bought
# Experiment: SPR Biacore T200, CD3 e/d-his on CM5, construct injected, 1:1 model;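 note: measured at 25 °C in HEPES-buffered saline with EDTA and Tween 20 at pH 7.4, values are means of three independent runs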
Binder,Kd,koff,kon
B2,160 nM,0.021 s⁻¹,134000 M⁻¹ s⁻¹
B4,106 nM,0.0129 s⁻¹,121000 M⁻¹ s⁻¹
B5,4.38 nM,0.00255 s⁻¹,589000 M⁻¹ s⁻¹
B6,5.93 nM,0.00778 s⁻¹,1.28e+06 M⁻¹ s⁻¹
